Measurements as given in patent US20190225669A1 (ACCELERON PHARMA, published 2019).

What was measured:
Test in all cases: Biacore SPR
BMP5 [1] = biological target: T1, BMP5 (UniProt P22003 317-454, limits assumed)
T1 sequence (looked up): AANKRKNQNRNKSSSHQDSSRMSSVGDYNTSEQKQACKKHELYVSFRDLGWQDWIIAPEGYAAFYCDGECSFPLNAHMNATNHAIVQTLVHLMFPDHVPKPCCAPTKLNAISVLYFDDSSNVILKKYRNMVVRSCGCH
Protocol: (§1) A Biacore™-based binding assay was used to compare ligand binding selectivity of the BMPRII-Fc:ALK2-Fc heterodimeric complex described above with that of BMPRII-Fc and ALK2-Fc homodimeric complexes. […] Ligands were injected and allowed to flow over the captured receptor protein.

BMP7 = biological target: T2, BMP7 (UniProt P18075 293-431)
T2 sequence (looked up): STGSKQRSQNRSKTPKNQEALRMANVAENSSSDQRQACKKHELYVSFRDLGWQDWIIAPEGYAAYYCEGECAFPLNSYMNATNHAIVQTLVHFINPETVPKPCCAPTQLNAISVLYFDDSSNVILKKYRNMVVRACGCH
Protocol: as §1

activin B [2] = biological target: T3, activin B (UniProt P09529 293-407)
T3 sequence (looked up): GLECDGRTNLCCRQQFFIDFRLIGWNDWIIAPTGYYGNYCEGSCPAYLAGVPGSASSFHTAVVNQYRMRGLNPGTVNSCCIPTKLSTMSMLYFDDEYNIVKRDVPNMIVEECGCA
Protocol: as §1

BMP10 [3] = biological target: T4, BMP10 (UniProt O95393 317-424)
T4 sequence (looked up): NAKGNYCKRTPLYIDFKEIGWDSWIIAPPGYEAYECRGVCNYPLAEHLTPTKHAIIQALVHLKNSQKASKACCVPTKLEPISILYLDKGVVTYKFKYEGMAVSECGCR
Protocol: as §1

BMP15 = biological target: T5, BMP15 (UniProt O95972 268-392)
T5 construct: also called GDF9b
T5 sequence (looked up): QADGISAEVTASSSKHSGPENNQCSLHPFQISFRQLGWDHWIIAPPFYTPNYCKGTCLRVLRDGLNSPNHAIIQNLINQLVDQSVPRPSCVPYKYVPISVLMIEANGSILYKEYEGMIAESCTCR
Protocol: as §1

BMP9 = biological target: T6, BMP9 (UniProt Q9UK05 320-429)
T6 construct: also called GDF2
T6 sequence (looked up): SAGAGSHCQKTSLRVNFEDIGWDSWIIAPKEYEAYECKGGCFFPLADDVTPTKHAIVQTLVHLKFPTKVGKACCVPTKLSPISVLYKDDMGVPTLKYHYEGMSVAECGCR
Protocol: as §1

GDF6 = biological target: T7, GDF6 (UniProt Q6KF10 336-455, limits assumed)
T7 construct: also called BMP13
T7 sequence (looked up): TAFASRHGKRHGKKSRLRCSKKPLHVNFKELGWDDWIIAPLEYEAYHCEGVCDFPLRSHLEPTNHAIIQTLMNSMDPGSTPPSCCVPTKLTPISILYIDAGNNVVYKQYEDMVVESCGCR
Protocol: (§2) Ligands were injected and allowed to flow over the captured receptor protein.

activin A = biological target: T8, activin A (UniProt P08476 311-426)
T8 sequence (looked up): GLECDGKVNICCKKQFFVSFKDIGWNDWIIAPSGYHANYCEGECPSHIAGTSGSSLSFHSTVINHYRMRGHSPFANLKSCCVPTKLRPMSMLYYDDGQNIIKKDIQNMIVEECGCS
Protocol: as §2

BMP5 [4] = biological target: T1, BMP5; remark: listed apart in the source
Protocol: as §2

GDF8 = biological target: T9, GDF8 (UniProt O14793 267-375)
T9 construct: also called myostatin
T9 sequence (looked up): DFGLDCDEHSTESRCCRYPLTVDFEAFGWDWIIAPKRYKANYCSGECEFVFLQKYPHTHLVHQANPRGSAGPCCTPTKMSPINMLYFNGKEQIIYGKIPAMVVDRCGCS
Protocol: as §2

activin B [5] = biological target: T3, activin B; remark: listed apart in the source
Protocol: as §2

GDF11 = biological target: T10, GDF11 (UniProt O95390 299-407)
T10 construct: also called BMP11
T10 sequence (looked up): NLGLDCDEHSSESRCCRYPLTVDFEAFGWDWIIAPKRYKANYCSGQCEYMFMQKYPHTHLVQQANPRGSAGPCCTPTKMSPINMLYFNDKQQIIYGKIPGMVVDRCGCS
Protocol: as §2

BMP10 [6] = biological target: T4, BMP10; remark: listed apart in the source
Protocol: as §2

GDF3 = biological target: T11, GDF3 (UniProt Q9NR23 251-364)
T11 sequence (looked up): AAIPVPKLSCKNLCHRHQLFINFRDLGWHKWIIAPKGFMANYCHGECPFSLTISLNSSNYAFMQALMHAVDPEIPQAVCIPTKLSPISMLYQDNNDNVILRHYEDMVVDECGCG
Protocol: as §2

B1: BMPRII-Fc:ALK2-Fc heterodimer (Fc fusion)
chain 1: SQNQERLCAFKDPYQQDLGIGESRISHENGTILCSKGSTCYGLWEKSKGDINLVKQGCWSHIGDPQECHYEECVVTTTPPSIQNGTYRFCCCSTDLCNVNFTENFPPPDTTPLSPPHSFNRDETGGGTHTCPPCPAPELLGGPSVFLFPPKPKDTLMISRTPEVTCVVVDVSHEDPEVKFNWYVDGVEVHNAKTKPREEQYNSTYRVVSVLTVLHQDWLNGKEYKCKVSNKALPAPIEKTISKAKGQPREPQVYTLPPSRKEMTKNQVSLTCLVKGFYPSDIAVEWESNGQPENNYKTTPPVLKSDGSFFLYSKLTVDKSRWQQGNVFSCSVMHEALHNHYTQKSLSLSPGK
chain 2: MEDEKPKVNPKLYMCVCEGLSCGNEDHCEGQQCFSSLSINDGFHVYQKGCFQVYEQGKMTCKTPPSPGQAVECCQGDWCNRNITAQLPTKGKSFPGTQNFHLETGGGTHTCPPCPAPELLGGPSVFLFPPKPKDTLMISRTPEVTCVVVDVSHEDPEVKFNWYVDGVEVHNAKTKPREEQYNSTYRVVSVLTVLHQDWLNGKEYKCKVSNKALPAPIEKTISKAKGQPREPQVYTLPPSREEMTKNQVSLTCLVKGFYPSDIAVEWESNGQPENNYDTTPPVLDSDGSFFLYSDLTVDKSRWQQGNVFSCSVMHEALHNHYTQKSLSLSPG
notes: C-terminal Lys optional; also called BMPRII-Fc:ALK2-Fc heterodimeric complex
- Kd (BMP5 [1]): 2.8 nM
- koff (BMP5 [1]): 0.005 s⁻¹
- kon (BMP5 [1]): 1.8e+06 M⁻¹ s⁻¹
- Kd (BMP7): 0.76 nM
- koff (BMP7): 0.012 s⁻¹
- kon (BMP7): 1.5e+07 M⁻¹ s⁻¹
- Kd (activin B [2]): 5.2 nM
- koff (activin B [2]): 0.0031 s⁻¹
- kon (activin B [2]): 590000 M⁻¹ s⁻¹
- Kd (BMP10 [3]): 0.3 nM
- koff (BMP10 [3]): 0.034 s⁻¹
- kon (BMP10 [3]): 1.1e+08 M⁻¹ s⁻¹
- Kd (BMP15): 1.1 nM
- koff (BMP15): 0.011 s⁻¹
- kon (BMP15): 9.6e+06 M⁻¹ s⁻¹
- Kd (BMP9): 0.5 nM
- koff (BMP9): 0.0051 s⁻¹
- kon (BMP9): 1e+07 M⁻¹ s⁻¹

B2: ALK2-Fc homodimer (Fc fusion, UniProt Q04771 21-123, looked up, not shown: a dimerising Fc or GST)
chain: MEDEKPKVNPKLYMCVCEGLSCGNEDHCEGQQCFSSLSINDGFHVYQKGCFQVYEQGKMTCKTPPSPGQAVECCQGDWCNRNITAQLPTKGKSFPGTQNFHLE
notes: extracellular domain
- binding result (GDF6): no binding
- binding result (activin A): no binding
- binding result (BMP5 [4]): no binding
- binding result (GDF8): no binding
- binding result (activin B [5]): no binding
- binding result (GDF11): no binding
- binding result (BMP10 [6]): no binding
- binding result (GDF3): no binding
- binding result (BMP15): no binding
